Results on two proteins are retold here after paper PMC11421798, “Subfunctionalization of NRC3 altered the genetic structure of the Nicotiana NRC network” (PLOS Genetics, 2024).

This data set deals with the molecule itself. Briefly: native gel or EMSA; BN-PAGE (NativePAGE 4-16% Bis-Tris) of 1% digitonin extracts of nrc2/3/4_KO N. benthamiana leaves at 2 dpi; NRC3 variant co-expressed with Rpi-blb2, without AVRblb2. A general note: In EMSA bound probe runs differently from free probe, usually more slowly.

Where a chain is given by its changes, count along the chain named. Numbers in names are those of the source.

B1: N^L21ENN (NbNRC3c with L21E) (natural protein, N. benthamiana, UniProt A0A5J6DCA3 1-888, looked up)
chain: MADVAADVAVKFLVENLMQLEIDNADLIIGIKGEVENLLQDLNDFNAFLKQAAKSRRDNEVLKSLVKKIRKVVNDAEDSIDKFVIEAKRHDDKNKFAQWFHLTHVARAKGVADEIKTIRERVKEIRQNDAYGLQAITSYDNFNQGAQERKVPVVEEDDVVGFDDEAKTVIDRLIGGSDYVVPVVGMPGLGKTTLAYKIFKDSTVEYEFFNRIWVYVSQSFNRREIFLNIISKFTRNTKQYHDTPEEELANEIKELLGKGGKYLVVLDDVWTREAWDRIKIAFPNNNKRNRVLMTTRQNNVAKSCNDKPHDLKFLTENESWELLEKRVFHKEKCPFELELPGKSIAKKCRGLPLAIVVIAGALIGKGKTTREWELVADSVGEHLINRDPENCKKLVQMSYDRLPYDLKACFLYCGAFPGGSEISAQKLICLWIAEGFIQYQGPLTLEDIAEDHLNDLVNRNLVMVMKRSSSGQIKTCRVHDMLHEFCRHEAMMEENLFQEIKRGQEHSFPEKQELASYRRLCIHSSVSEFLSTKPFAEHVRSFLCFASKKFEMPLGEIPAIPRAFPLLRVLDAESIKFSRFSREFFKLFHLRYIAFSTDSIMTIPTNIGNLWNVQTLIIETQQGTLDIKADIWNMTRLRHVCINASATLPSPKRPKSSKDNLVNRCLQTLSTIAPECCTAEVFTRTPNLKKLGVRGKIDALLETSKDGSSSGLFSNIGKLDCLEKLKLVNDTRQSRKQLHLPPAYIFPQKLKKLTLIDTWFEWKDMSILGLLEYLEVLKLKENAFRGQSWEPEDSGFPRLQVLWIERTDLSSWKASSGNFPRLKCLVLIACDNLKELPAELADVENLQLMELQSTSVSAAKSARAILKKKQQKVGSGFKLSVFPPDLGL
notes: NRC3 (NbNRC3c) of Nicotiana benthamiana with L21E in the CC domain; L21E is named only in the methods of the BN-PAGE; the results call this protein NNN; also called NNN (in the BN-PAGE); source: nrc2/3/4_KO N. benthamiana leaves, agroinfiltrated, in digitonin extract
A word on the stoichiometry N: it is the number of molecules, sites or subunits per partner or assembly. B1: the “stoichiometry N” value came out at 2.

B2: N^L21… (… with L21E) (natural protein, N. benthamiana, UniProt A0A5J6DCA3 1-888, looked up)
chain: B1 chain with S202P, T203K, N221K, I642T, C824H, N832K
notes: L21E is named only in the methods of the BN-PAGE; source: nrc2/3/4_KO N. benthamiana leaves, agroinfiltrated, in digitonin extract
B2: the “stoichiometry N” value is 2.
